Experimental data reported in the supplement of paper PMC10567573.

B1: STK38L (parent)
chain: FCIDSENRIGNSGVEEIKGHPFFE

Variants of: B1
Test: protein stability index of a GFP-peptide fusion (GPS, HEK-293T) (PSI 1-6); higher = more stable
Conditions: c terminus: a fixed tail appended
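Further: lentivirally expressed fusions sorted by FACS into six bins by GFP to DsRed ratio, PSI derived from sequencing read proportions per bin multiplied by bin number.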

Q: With FCIDSENRIGNSGVTEIKGHPFFE as the variant, how does the protein stability index read?
A: Its protein stability index is 2.08.

Q: Which protein stability index does the source give for FCIDSENRIGNSGVSEIKGHPFFE here?
A: Its protein stability index is 1.96.

Q: With FCIDSENRIGNSGVYEIKGHPFFE as the variant, how does the protein stability index read?
A: Its protein stability index is 1.92.

Q: With FCIDSENRIGNSGVQEIKGHPFFE as the variant, how does the protein stability index read?
A: Its protein stability index is 1.57.

Q: With FCIDSENRIGNSGVREIKGHPFFE as the variant, how does the protein stability index read?
A: Its protein stability index is 2.08.

Q: Which protein stability index does the source give for FCIDSENRIGNSGVPEIKGHPFFE here?
A: The protein stability index was 1.98.

Q: With FCIDSENRIGNSGVNEIKGHPFFE as the variant, how does the protein stability index read?
A: The protein stability index was 1.64.

Q: With FCIDSENRIGNSGVMEIKGHPFFE as the variant, how does the protein stability index read?
A: The protein stability index was 2.51.

Q: For FCIDSENRIGNSGVVEIKGHPFFE, which protein stability index is on record?
A: Its protein stability index is 2.52.

Q: For FCIDSENRIGNSGVEEIKVHPFFE, which protein stability index is on record?
A: The protein stability index was 2.09.

Q: Which protein stability index does the source give for FCIDSENRIGNSGVEEIKKHPFFE here?
A: Its protein stability index is 2.16.

Q: With FCIDSENRIGNSGVEEIKQHPFFE as the variant, how does the protein stability index read?
A: Its protein stability index is 2.37.

Q: For FCIDSENRIGNSGVEEIKRHPFFE, which protein stability index is on record?
A: Its protein stability index is 1.63.

Q: With FCIDSENRIGNSGVEEIKWHPFFE as the variant, how does the protein stability index read?
A: The protein stability index was 2.27.

Q: Which protein stability index does the source give for FCIDSENRIGNSGVEEIKCHPFFE here?
A: The protein stability index was 1.68.

Q: For FCIDSENRIGNSGVEEIKPHPFFE, which protein stability index is on record?
A: Its protein stability index is 1.99.

Q: With FCIDSENRIGNSGVEEIKAHPFFE as the variant, how does the protein stability index read?
A: The protein stability index was 2.15.

Q: For FCIDSENRIGNSGVEEIKIHPFFE, which protein stability index is on record?
A: Its protein stability index is 1.54.

Q: With FCIDSENRIGNSGVEEIKEHPFFE as the variant, how does the protein stability index read?
A: Its protein stability index is 3.45.

Q: With FCIDSENRIGNSGVEEIKYHPFFE as the variant, how does the protein stability index read?
A: Its protein stability index is 1.99.

Q: For FCIDSENRIGNSGVEEIKDHPFFE, which protein stability index is on record?
A: Its protein stability index is 3.21.

Q: Which protein stability index does the source give for FCIDSENRIGNSGVEEIKLHPFFE here?
A: The protein stability index was 1.87.

Q: For FCIDSENRIGNSGVEEIKFHPFFE, which protein stability index is on record?
A: Its protein stability index is 1.8.

Q: For FCIDSENRIGNSGVEEIKMHPFFE, which protein stability index is on record?
A: The protein stability index was 1.67.

Q: With FCIDSENRIGNSGVEEIKTHPFFE as the variant, how does the protein stability index read?
A: The protein stability index was 2.19.

Q: Which protein stability index does the source give for FCIDSENRIGNSGVEEIKSHPFFE here?
A: Its protein stability index is 2.43.

Q: With FCIDSENRIGNSGVEEIKHHPFFE as the variant, how does the protein stability index read?
A: The protein stability index was 2.13.

Q: With FCIDSENRIGNSGVEEIKNHPFFE as the variant, how does the protein stability index read?
A: Its protein stability index is 2.68.

Q: For FCIDSENRIGNSGVEECKGHPFFE, which protein stability index is on record?
A: Its protein stability index is 2.84.

Q: For FCIDSENRIGNSGVEERKGHPFFE, which protein stability index is on record?
A: The protein stability index was 2.1.

Q: With FCIDSENRIGNSGVEENKGHPFFE as the variant, how does the protein stability index read?
A: Its protein stability index is 2.88.

Q: With FCIDSENRIGNSGVEEYKGHPFFE as the variant, how does the protein stability index read?
A: The protein stability index was 2.18.

Q: For FCIDSENRIGNSGVEEEKGHPFFE, which protein stability index is on record?
A: Its protein stability index is 3.47.

Q: For FCIDSENRIGNSGVEEHKGHPFFE, which protein stability index is on record?
A: The protein stability index was 2.16.

Q: For FCIDSENRIGNSGVEEQKGHPFFE, which protein stability index is on record?
A: The protein stability index was 2.53.

Q: For FCIDSENRIGNSGVEEGKGHPFFE, which protein stability index is on record?
A: The protein stability index was 2.38.

Q: For FCIDSENRIGNSGVEEKKGHPFFE, which protein stability index is on record?
A: The protein stability index was 2.35.

Q: With FCIDSENRIGNSGVEEDKGHPFFE as the variant, how does the protein stability index read?
A: Its protein stability index is 3.1.

Q: Which protein stability index does the source give for FCIDSENRIGNSGVEESKGHPFFE here?
A: Its protein stability index is 3.17.

Q: For FCIDSENRIGNSGVEEPKGHPFFE, which protein stability index is on record?
A: Its protein stability index is 2.54.

Q: Which protein stability index does the source give for FCIDSENRIGNSGVEEWKGHPFFE here?
A: Its protein stability index is 1.67.

Q: For FCIDSENRIGNSGVEEFKGHPFFE, which protein stability index is on record?
A: The protein stability index was 2.36.

Q: With FCIDSENRIGNSGVEEMKGHPFFE as the variant, how does the protein stability index read?
A: Its protein stability index is 2.79.

Q: Which protein stability index does the source give for FCIDSENRIGNSGVEELKGHPFFE here?
A: The protein stability index was 2.61.

Q: For FCIDSENRIGNSGVEETKGHPFFE, which protein stability index is on record?
A: Its protein stability index is 3.17.

Q: With FCIDSENRIGNSGVEEIKGGPFFE as the variant, how does the protein stability index read?
A: The protein stability index was 3.09.

Q: With FCIDSENRIGNSGVEEIKGMPFFE as the variant, how does the protein stability index read?
A: The protein stability index was 2.71.

Q: For FCIDSENRIGNSGVEEIKGNPFFE, which protein stability index is on record?
A: The protein stability index was 2.67.

Q: With FCIDSENRIGNSGVEEIKGCPFFE as the variant, how does the protein stability index read?
A: The protein stability index was 1.54.

Q: Which protein stability index does the source give for FCIDSENRIGNSGVEEIKGEPFFE here?
A: Its protein stability index is 4.12.

Q: For FCIDSENRIGNSGVEEIKGLPFFE, which protein stability index is on record?
A: The protein stability index was 2.69.

Q: With FCIDSENRIGNSGVEEIKGDPFFE as the variant, how does the protein stability index read?
A: Its protein stability index is 2.53.

Q: For FCIDSENRIGNSGVEEIKGPPFFE, which protein stability index is on record?
A: The protein stability index was 3.45.

Q: For FCIDSENRIGNSGVEEIKGFPFFE, which protein stability index is on record?
A: The protein stability index was 2.62.

Q: Which protein stability index does the source give for FCIDSENRIGNSGVEEIKGKPFFE here?
A: Its protein stability index is 3.41.

Q: For FCIDSENRIGNSGVEEIKGIPFFE, which protein stability index is on record?
A: The protein stability index was 2.95.

Q: With FCIDSENRIGNSGVEEIKGAPFFE as the variant, how does the protein stability index read?
A: Its protein stability index is 3.79.

Q: Which protein stability index does the source give for FCIDSENRIGNSGVEFIKGHPFFE here?
A: The protein stability index was 2.25.

Q: For FCIDSENRIGNSGVEDIKGHPFFE, which protein stability index is on record?
A: The protein stability index was 1.89.

Q: Which protein stability index does the source give for FCIDSENRIGNSGVEGIKGHPFFE here?
A: The protein stability index was 2.67.

Q: For FCIDSENRIGNSGVECIKGHPFFE, which protein stability index is on record?
A: The protein stability index was 2.23.

Q: Which protein stability index does the source give for FCIDSENRIGNSGVEVIKGHPFFE here?
A: The protein stability index was 1.87.

Q: Which protein stability index does the source give for FCIDSENRIGNSGVENIKGHPFFE here?
A: Its protein stability index is 2.06.

Q: Which protein stability index does the source give for FCIDSENRIGNSGVEIIKGHPFFE here?
A: The protein stability index was 1.55.

Q: Which protein stability index does the source give for FCIDSENRIGNSGVEWIKGHPFFE here?
A: The protein stability index was 1.44.

Q: Which protein stability index does the source give for FCIDSENRIGNSGVESIKGHPFFE here?
A: The protein stability index was 1.85.

Q: For FCIDSENRIGNSGVEPIKGHPFFE, which protein stability index is on record?
A: Its protein stability index is 2.42.

Q: With FCIDSENRIGNSGVEYIKGHPFFE as the variant, how does the protein stability index read?
A: The protein stability index was 1.51.

Q: For FCIDSENRIGNSGVEMIKGHPFFE, which protein stability index is on record?
A: Its protein stability index is 2.28.

Q: For FCIDSENRIGNSGVETIKGHPFFE, which protein stability index is on record?
A: The protein stability index was 2.35.

Q: With FCIDSENRIGNSGVERIKGHPFFE as the variant, how does the protein stability index read?
A: Its protein stability index is 2.3.

Q: Which protein stability index does the source give for FCIDSENRIGNSGVEHIKGHPFFE here?
A: Its protein stability index is 2.22.

Q: Which protein stability index does the source give for FCIDSENRIGNSGVEKIKGHPFFE here?
A: The protein stability index was 1.98.

Q: For FCIDSENRIGNSGVELIKGHPFFE, which protein stability index is on record?
A: The protein stability index was 1.79.

Q: With FCIDSENRIGNSGVEQIKGHPFFE as the variant, how does the protein stability index read?
A: Its protein stability index is 2.54.

Q: Which protein stability index does the source give for FCIDSENRIGNSGVEAIKGHPFFE here?
A: Its protein stability index is 3.21.

Q: For FCIDSENRIGNSGVEEIDGHPFFE, which protein stability index is on record?
A: The protein stability index was 4.12.

Q: For FCIDSENRIGNSGVEEIIGHPFFE, which protein stability index is on record?
A: The protein stability index was 2.31.

Q: For FCIDSENRIGNSGVEEISGHPFFE, which protein stability index is on record?
A: The protein stability index was 3.

Q: For FCIDSENRIGNSGVEEIQGHPFFE, which protein stability index is on record?
A: The protein stability index was 2.2.

Q: Which protein stability index does the source give for FCIDSENRIGNSGVEEIMGHPFFE here?
A: Its protein stability index is 1.65.

Q: With FCIDSENRIGNSGVEEIFGHPFFE as the variant, how does the protein stability index read?
A: The protein stability index was 2.12.

Q: Which protein stability index does the source give for FCIDSENRIGNSGVEEICGHPFFE here?
A: The protein stability index was 2.82.

Q: Which protein stability index does the source give for FCIDSENRIGNSGVEEIWGHPFFE here?
A: The protein stability index was 2.47.

Q: Which protein stability index does the source give for FCIDSENRIGNSGVEEIPGHPFFE here?
A: The protein stability index was 3.07.

Q: Which protein stability index does the source give for FCIDSENRIGNSGVEEITGHPFFE here?
A: Its protein stability index is 2.6.

Q: For FCIDSENRIGNSGVEEINGHPFFE, which protein stability index is on record?
A: Its protein stability index is 2.8.

Q: With FCIDSENRIGNSGVEEIVGHPFFE as the variant, how does the protein stability index read?
A: Its protein stability index is 2.63.

Q: For FCIDSENRIGNSGVEEIEGHPFFE, which protein stability index is on record?
A: Its protein stability index is 3.07.

Q: With FCIDSENRIGNSGVEEIYGHPFFE as the variant, how does the protein stability index read?
A: The protein stability index was 2.16.

Q: With FCIDSENRIGNSGVEEILGHPFFE as the variant, how does the protein stability index read?
A: Its protein stability index is 2.89.

Q: With FCIDSENRIGNSGVEEIHGHPFFE as the variant, how does the protein stability index read?
A: The protein stability index was 2.34.

Q: For FCIDSENRIGNSGVEEIAGHPFFE, which protein stability index is on record?
A: The protein stability index was 2.48.

Q: For FCIDSENRIGNSGVEEIGGHPFFE, which protein stability index is on record?
A: The protein stability index was 2.36.
